{"source": "paper PMC3841738", "about": "(Genes & Development, 2013)", "proteins": {"B1": {"name": "NtrC1 ATPase domain (Aquifex aeolicus) (domain or fragment)", "chain": "LRKENELLRREKDLKEEEYVFESPKMKEILEKIKKISCAECPVLITGESGVGKEVVARLIHKLSDRSKEPFVALNVASIPRDIFEAELFGYEKGAFTGAVSSKEGFFELADGGTLFLDEIGELSLEAQAKLLRVIESGKFYRLGGRKEIEVNVRILAATNRNIKELVKEGKFREDLYYRLGVIEIEIPPLRERKEDIIPLANHFLKKFSRKYAKEVEGFTKSAQELLLSYPWYGNVRELKNVIERAVLFSEGKFIDRGELSCLVNSK"}}, "target": "the molecule itself", "experiment": "SAXS", "data": [{"protein": "B1", "values": [{"measurement": "stoichiometry N", "value": 7}]}]}
